Laboratory results taken from patent US20230183346A1 (INSERM INSTITUT NATIONAL DE LA SANTE ET DE LA RECHERCHE …, published 2023).

Target: T1, human BTLA (B and T lymphocyte attenuator), BTLA isoform 1 precursor (Homo sapiens) (human, UniProt Q7Z6A9 31-289)
T1 construct: BTLA was presented on CD3+ T cells of PBMC, on COS cells transfected with human BTLA in p3xFlag-myc-CMV25 (this construct may carry tags; not described), and on L-BTLA fibroblasts stably transfected with human BTLA; also called CD272
Experiment: flow cytometry on CD3+ T cells among PBMC, 0.01-10 ug/ml
Procedure: T cells (CD3+) among PBMC were stained for BTLA with the anti BTLA mAbs at various concentration (from 0.01 μg/ml to 10μ,g/ml). […] Then COS transfected with human BTLA were incubated with the anti BTLA mAbs and then with HVEM-Fc before staining with an anti human IgG Fc PE. The percentage of inhibition was determined as 100-maximum of percentage of stained cells. […] The median fluorescence intensity of cells was determined. […] On the other hand, 7.1 and 8.2 antibodies were not able to compete against 4C7 mAb at a high dose (FIG. 3). […] Finally, γδT were obtained after a positive sorting of fresh purified PBMC and stained for Cell Trace Violet to follow the proliferation. Cells were incubated 5 days in IL2/Zometa with the different mAbs prior to analysis by flow cytometry. The addition of antibodies in the culture of the γδT lead to an upregulation of their proliferation. Cells incubated with the HVEM 18.10 mAb disclosed in WO2014184360 is able to proliferate more than cells incubated with the mock control (IgG1) (FIG. 4).

binding result: binds
B1: 629.3 mAb (antibody, V domains shown)
VH: QVQLRESGPGLVAPSQSLSITCTVSGFSLNTYGVSWVRQPPGKGLEWLGVVWGDGNTNYHSVVISRLTINKDNSKSQVFLKLNSLQTDDTATYYCAKCYGSRFDYAMDYWGQGTSVTVSS
VL: DIVMSQSPSSLAVSIGEQVTMSCKSSQSLLSSRTRKNYLAWYQQRPGQSPKLLIYWASTRESGVPDRFTGSGSGTDFTLTISSVQAEDLAVYYCKQSYNLPTFGGGTRLEIK
notes: Mouse monoclonal antibody, detected with anti-mouse IgG
